This experiment concerns the target … (SEQ. ID. No. 74). Nature of the experiment: competition EIA, 5 ug HBcAg peptide + 5 ug SEQ 74 peptide on coated HBcAg (competitor); OD of bound SEQ 74 peptide.

In the case of “HBcAg peptide … (residues 51-70, Sequence ID 100)”, the OD at 490 nm was found to be 0.646 OD. To “HBcAg peptide … (residues 111-131 as printed, Sequence ID 106)” belongs 0.832 OD; to “HBcAg peptide … (residues 121-140, Sequence ID 107)”, 0.701 OD; to “HBcAg peptide … (residues 141-160, Sequence ID 109)”, 0.811 OD. As for “HBcAg peptide … (residues 151-170, Sequence ID 110)”, the OD at 490 nm came to 0.732 OD.

Take “HBcAg peptide … (residues 161-183, Sequence ID 111)”: the OD at 490 nm was 0.678 OD.

The record behind these values is patent US20020058247A1.
